We go through one molecule from article PMC8205012, “Novel CD123 polyaptamer hydrogel edited by Cas9/sgRNA for AML-targeted therapy”.

The target in this data set is Cas9 (UniProt Q99ZW2 1-1368). Put plainly: flow cytometry, Cas9 beads; Cell binding: 1e5 cells, 50 nM (flow) or 5 uM (confocal) FAM-DNA, 37 C, 30 min, PBS wash; bead assays: beads washed in PBS, binding buffer and temperature not stated. The note with it: protein: commercial; label: FAM.
Chain of Cas9 (Q99ZW2 whole entry): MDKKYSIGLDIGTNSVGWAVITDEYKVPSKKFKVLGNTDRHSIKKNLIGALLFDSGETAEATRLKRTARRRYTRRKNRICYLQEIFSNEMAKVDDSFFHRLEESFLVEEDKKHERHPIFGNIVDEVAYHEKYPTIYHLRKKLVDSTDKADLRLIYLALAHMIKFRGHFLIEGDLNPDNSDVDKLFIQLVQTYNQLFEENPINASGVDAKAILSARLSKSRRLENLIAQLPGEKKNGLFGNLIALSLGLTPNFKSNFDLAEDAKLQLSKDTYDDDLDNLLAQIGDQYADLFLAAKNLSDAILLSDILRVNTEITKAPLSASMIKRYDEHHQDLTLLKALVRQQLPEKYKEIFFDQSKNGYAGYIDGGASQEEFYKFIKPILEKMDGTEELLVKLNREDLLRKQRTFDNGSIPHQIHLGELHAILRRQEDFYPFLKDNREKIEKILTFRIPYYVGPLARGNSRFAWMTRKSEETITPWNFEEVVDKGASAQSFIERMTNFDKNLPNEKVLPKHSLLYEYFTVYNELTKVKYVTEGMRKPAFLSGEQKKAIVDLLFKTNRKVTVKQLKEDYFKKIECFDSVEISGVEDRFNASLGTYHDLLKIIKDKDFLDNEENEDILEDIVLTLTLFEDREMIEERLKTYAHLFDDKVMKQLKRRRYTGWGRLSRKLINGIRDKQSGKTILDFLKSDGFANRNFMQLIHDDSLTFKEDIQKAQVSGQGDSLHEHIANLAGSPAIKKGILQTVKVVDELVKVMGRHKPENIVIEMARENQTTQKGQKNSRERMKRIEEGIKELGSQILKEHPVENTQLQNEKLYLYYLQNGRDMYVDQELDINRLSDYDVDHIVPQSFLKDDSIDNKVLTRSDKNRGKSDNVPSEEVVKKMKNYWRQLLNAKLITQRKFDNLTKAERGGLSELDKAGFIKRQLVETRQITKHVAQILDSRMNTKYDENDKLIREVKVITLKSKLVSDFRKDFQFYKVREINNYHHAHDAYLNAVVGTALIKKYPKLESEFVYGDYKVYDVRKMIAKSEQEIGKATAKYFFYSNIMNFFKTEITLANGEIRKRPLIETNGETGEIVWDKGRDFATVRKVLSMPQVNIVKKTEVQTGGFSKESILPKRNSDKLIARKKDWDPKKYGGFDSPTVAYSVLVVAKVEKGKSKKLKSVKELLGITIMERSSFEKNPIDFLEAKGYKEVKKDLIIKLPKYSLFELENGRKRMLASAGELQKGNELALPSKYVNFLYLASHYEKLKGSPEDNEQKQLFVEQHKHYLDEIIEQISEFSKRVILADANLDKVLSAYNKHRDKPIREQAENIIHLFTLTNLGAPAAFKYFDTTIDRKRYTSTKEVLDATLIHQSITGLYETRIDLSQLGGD

B1: sgRNA (structured_RNA)
RNA: GGUGGUGCAGAUGAACUUCAGUUUUAGAGCUAGAAAUAGCAAGUUAAAAUAAGGCUAGUCCGUUAUCAACUUGAAAAAGUGGCACCGAGUCGGUGCUUUU
In the case of B1, the binding result is reported as “binds”.
